B1: MjTET: TET aminopeptidase (M42 family, dodecameric) from Methanocaldococcus jannaschii comprising SEQ ID NO: 1 (protein, listed as Methanococcus jannaschii)
chain: MSVVEYLKKLSKLHGISGREDSVREFMKKELEKYCDSVEIDNFGNLIAKRGNKGKKIMIAAHMDEIGLMVKYIDDNGFLKFTKIGGIYDPTILNQKVVVHGSKGDLIGVLGSKPPHRMKEEEKTKIIKYEDMFIDIGAESREEAIEMGVNIGTWVSFLSEVYDLGKNRLTGKAFDDRVGCAVLLEVMKRLSEEDIDCQVYAVGTVQEEVGLKGARVSAFKINPDVAIALDVTIAGDHPGIKKEDAPVDLGKGPVVGIVDASGRGLIAHPKVLDMIKAVSEKYKIDVQWEVGEGGTTDATAIHLTREGIPTGVISVPARYIHTPVEVIDKRDLEKTVELVYNCIKEVNNFF
B2: PhTET2: leucyl aminopeptidase TET complex of Pyrococcus horikoshii with broad activity against neutral amino acids (protein)
chain: MEVRNMVDYELLKKVVEAPGVSGYEFLGIRDVVIEEIKDYVDEVKVDKLGNVIAHKKGEGPKVMIAAHMDQIGLMVTHIEKNGFLRVAPIGGVDPKTLIAQRFKVWIDKGKFIYGVGASVPPHIQKPEDRKKAPDWDQIFIDIGAESKEEAEDMGVKIGTVITWDGRLERLGKHRFVSIAFDDRIAVYTILEVAKQLKDAKADVYFVATVQEEVGLRGARTSAFGIEPDYGFAIDVTIAADIPGTPEHKQVTHLGKGTAIKIMDRSVICHPTIVRWLEELAKKHEIPYQLEILLGGGTDAGAIHLTKAGVPTGALSVPARYIHSNTEVVDERDVDATVELMTKALENIHELKI

What was measured:
[1] = Hydrolytic activity on synthetic chromogenic and fluorogenic monoacyl compounds; format: biochemical; conditions: for cleavage of tryptophan from substrate Nt end: FIG. 4; for amidolytic activity against aromatic amino acids: phenylalanine and tyrosine, MjTET compared with PhTET2 (FIG. 4)
Description: The hydrolytic activity of MjTET on synthetic chromogenic and fluorogenic compounds was determined by using different aminoacyl-pNAs and aminoacyl-AMCs through the following procedure. Reactions were initiated by addition of 4 μg/mL of enzyme to a pre-warmed mixture containing 5 mM of the chromogenic or fluorogenic compound in 50 mM CHES, 150 mM KCl and 0.1 mM CoCl2, pH 8.2, in a total volume of 400 μl. Incubation was performed at 75° C. for 5 min. The quantity of liberated pNA was evaluated by measuring the absorbance at λ=405 nm in a JASCO V-630 spectrophotometer, and for AMC by measuring the fluorescence using excitation and emission wavelengths of 360 and 440 nm, respectively in a JASCO FP-8500 spectrofluorometer. Three replicates and two enzyme blanks were assayed for each experimental point. Additional enzymatic studies were performed in order to investigate MjTET capacities to hydrolyze longer substrates (H-Trp-Phe-Tyr-Ser(PO3H2)-Pro-Arg-pNA (SEQ ID NO: 3), H-Met-Trp-Ala-Glu-Asn-Lys (SEQ ID NO:4), H-Tyr-Asp-Thr-Ser-Ile-Val-Gln-Arg (SEQ ID NO:5), H-Asp-Ala-Tyr-Pro-Ser (SEQ ID NO: 6) and H-Glu-Gly-Ile. 2 μg/ml (final concentration) of MjTET were added to a pre-warmed mixture of 0.75 mM peptide, 50 mM CHES, 150 mM KCl, 0.1 mM CoCl2, pH 8.5. To avoid water evaporation, 20 μl of mineral oil were added on the top of the total volume. The reaction incubation was done at 85° C. during 6 min. Aliquot of 80 μl was then removed and added to 220 μl of 2% acetonitrile (ACN), 0.1% trifluoroacetic acid (TFA). Proteins were removed by centrifugation at 13,000 rpm during 15 min. 100 μl of the supernatant were retrieved and injected on Nova-Pak C18 column, (4 μm, 3.9×300 mm, (Waters)) in a HPLC purifier system (PerkinElmer), equilibrated with 2% ACN, 0.1% TFA. […] Chromatographic runs were carried out at room temperature.

[2] = Effect of temperature on MjTET stability (remaining aminopeptidase activity after incubation at 85° C.); format: physicochemical; conditions: incubated at 85° C.; remaining activity on Leu-pNA
Description: The effect of temperature on MjTET stability was assayed by incubating the enzyme (160 μg/ml) at 85° C. Aliquot of 10 μl was taken at different time intervals, and the remaining aminopeptidase activity was assayed against 5 mM Leu-pNA in 390 μl of 50 mM CHES, 150 mM KCl, 0.1 mM CoCl2, pH 8.5 incubated at 85° C. for 5 min. Enzymatic stability of MjTET was evaluated by measuring the quantity of produced pNA at 405 nm.

[3] = Effect of pH on MjTET activity; format: biochemical; conditions: pH 6 and 10.5; Leu-pNA, 75° C.
Description: The effect of pH on MjTET activity was determined in pH range varying from 6 to 11. The buffers used were: PIPES, pH 6-7.5; CHES, pH 8.2-10 and CAPS, pH 10.5-11. All buffers were used at 50 mM concentration in presence of 150 mM KCl, 0.1 mM CoCl2, 4 μg/mL of MjTET and 5 mM Leu-pNA as substrate. The given pH values are at 75° C. Incubation was done at 75° C. for 5 min and the quantity of produced pNA was evaluated by measuring the absorbance at 405 nm.

[4] = test system: peptide YFLMNENRYTSWNSE (SEQ ID NO: 2); test: Time necessary to hydrolyse 50% of a 15 amino acid peptide at different temperatures; format: biochemical
Description: In order to evaluate the effect of the temperature on the activity of MjTET, the inventors evaluated the relative amount of intact peptides further to an incubation with the TET protein at different temperatures.
The inventors have measured the relative amount of intact peptide further to an incubation with MjTET.
MjTET activity was measured on the following peptide: YFLMNENRYTSWNSE (SEQ ID NO: 2). The inventors evaluated the time necessary to hydrolyse 50% of the peptide at different tempertaures

[5] = Effect of temperature on MjTET activity; format: biochemical; conditions: Leu-pNA
Description: Different temperatures ranging from 20 to 90° C. were tested on MjTET activity. Incubation was done in 50 mM CHES, 150 mM KCl, 0.1 mM CoCl2, pH 8.5 in presence of 4 μg/mL of protein and 5 mM Leu-pNA for 5 min. Absorbance of released pNA was measured at 405 nm.

[6] = test system: H-Trp-Phe-Tyr-Ser(PO3H2)-Pro-Arg-pNA; test: Hydrolysis of longer peptide substrates followed by reverse phase HPLC; format: biochemical; conditions: after 5 minutes, 85° C.
Description: The hydrolytic activity of MjTET on synthetic chromogenic and fluorogenic compounds was determined by using different aminoacyl-pNAs and aminoacyl-AMCs through the following procedure. Reactions were initiated by addition of 4 μg/mL of enzyme to a pre-warmed mixture containing 5 mM of the chromogenic or fluorogenic compound in 50 mM CHES, 150 mM KCl and 0.1 mM CoCl2, pH 8.2, in a total volume of 400 μl. Incubation was performed at 75° C. for 5 min. The quantity of liberated pNA was evaluated by measuring the absorbance at λ=405 nm in a JASCO V-630 spectrophotometer, and for AMC by measuring the fluorescence using excitation and emission wavelengths of 360 and 440 nm, respectively in a JASCO FP-8500 spectrofluorometer. Three replicates and two enzyme blanks were assayed for each experimental point. Additional enzymatic studies were performed in order to investigate MjTET capacities to hydrolyze longer substrates (H-Trp-Phe-Tyr-Ser(PO3H2)-Pro-Arg-pNA (SEQ ID NO: 3), H-Met-Trp-Ala-Glu-Asn-Lys (SEQ ID NO:4), H-Tyr-Asp-Thr-Ser-Ile-Val-Gln-Arg (SEQ ID NO:5), H-Asp-Ala-Tyr-Pro-Ser (SEQ ID NO: 6) and H-Glu-Gly-Ile. 2 μg/ml (final concentration) of MjTET were added to a pre-warmed mixture of 0.75 mM peptide, 50 mM CHES, 150 mM KCl, 0.1 mM CoCl2, pH 8.5. To avoid water evaporation, 20 μl of mineral oil were added on the top of the total volume. […]

Molecule | cleavage of tryptophan from substrate Nt end [1] | amidolytic activity ([1]; against Leu-pNA, 75° C., pH 8.2) | amidolytic activity ([1]; against hydrophobic residues such as phenylalanine, methionine and tyrosine) | amidolytic activity ([1]; aspartate, glutamate, cysteine and proline monoacyl substrates) | amidolytic activity ([1]; blocked residues and D-stereo configuration: Ac-Leu-pNA and D-Leu-pNA) | amidolytic activity against aromatic amino acids [1] | amidolytic activity ([1]; polar and positively charged residues) | half-life [2] | percentage of LAP activity maintained [3] | Time necessary to hydrolyse 50% of the peptide ([4]; 20 ° C.) | Time necessary to hydrolyse 50% of the peptide ([4]; 30 ° C.) | Time necessary to hydrolyse 50% of the peptide ([4]; 40 ° C.) | Time necessary to hydrolyse 50% of the peptide ([4]; 50 ° C.) | Time necessary to hydrolyse 50% of the peptide ([4]; 60 ° C.) | Time necessary to hydrolyse 50% of the peptide ([4]; 70 ° C.) | Time necessary to hydrolyse 50% of the peptide ([4]; 80 ° C.) | temperature of maximal LAP activity ([5]; pH 8.5, 0.1 mM CoCl2, 20 to 90° C. tested) | LAP activity in mesophilic conditions ([5]; under 50° C.) | hydrolysis of the original peptide substrate [6] | hydrolytic activity toward N-terminal phenylalanine residues [1]
B1 | unable to cleave | optimal amidolytic activity | significant amidolytic activities | no activity was detected | no activity was detected | more efficient | Reduced activities | eight | more than 50% | 75 h | 55 h | 3,9 h | 1.3 h | 1 h | 0.6 h | 0.25 h | 85 °C | No activity was detected | almost hydrolyzed | 
B2 | unable to cleave |  |  |  |  | weak activity |  |  |  |  |  | 0.5 h |  |  |  |  |  |  |  | devoid of hydrolytic activity

— US20210002623A1, “AMINOPEPTIDASE AND ITS USES” (Centre national de la recherche scientifique, priority 2017, published 2021)
